The results in this text go back to US20220281962A1.

The target in assay [1] is recombinant human tetranectin (TN), residue 22-202 with a C-terminal histidine tag (human) (UniProt P05452). The assay is described as follows: OpenSPR; TN chip, HMGB1 200 nM, without mAb8 pre-treatment.
Assay [2] has the same target. The assay is described as follows: OpenSPR; TN chip pre-treated with mAb8 (29.6 nM), HMGB1 200 nM.
For assay [3] the target is unchanged. Nature of the assay: OpenSPR; TN chip with against without mAb8 (29.6 nM) pre-treatment.
Assay [4] shares this target. Nature of the assay: OpenSPR; TN on the chip, HMGB1 applied (FIG. 5A, Lower Panel, per paragraph 223).
The target is the same in assay [5]. The assay is described as follows: OpenSPR; TN chip pre-treated with mAb8 (29.6 nM), HMGB1 at various concentrations.
Assay [6] has the same target. Nature of the assay: OpenSPR; TN immobilized on the chip, HMGB1 applied at 400, 200, 100 and 25 (no unit on the sheet) [A) lower panel].
Assay [7] concerns the target recombinant CBP-HMGB1 (rat HMGB1 with a calmodulin-binding peptide tag) (rat) (UniProt P63159). The assay is described as follows: OpenSPR; HMGB1 immobilized on the chip, TN applied at 280, 93, 31 and 10 (no unit on the sheet) [A) upper panel].
Assay [8] has the same target. The assay is described as follows: OpenSPR; TN or HMGB1 on the chip (His-tag or carboxyl groups); this end taken as HMGB1 on chip, TN applied (inferred, since 2.88 nM is tied to the TN chip at paragraph 223).

recombinant CBP-HMGB1 (rat HMGB1 with a calmodulin-binding peptide tag) (rat), sequence (P63159 whole entry, form in doubt): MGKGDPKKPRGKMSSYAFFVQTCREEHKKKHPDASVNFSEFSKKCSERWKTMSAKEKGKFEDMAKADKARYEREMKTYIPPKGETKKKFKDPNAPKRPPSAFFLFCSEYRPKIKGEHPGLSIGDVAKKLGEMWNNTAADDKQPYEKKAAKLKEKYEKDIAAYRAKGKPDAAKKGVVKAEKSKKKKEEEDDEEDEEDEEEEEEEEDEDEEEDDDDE

Regarding “recombinant CBP-HMGB1 (rat HMGB1 with a calmodulin-binding peptide tag) (from UniProt P63159 1-215)”, the SPR response signal in assay [1] was found to be 150 AU; in assay [2] it was 35 AU. In addition, the fold increase of KD in assay [3] is 6 fold. Also, the figures for the Kd in assay [4], in assay [5] and in assay [6] were 1.21 to 2.88 nM, 18.5 nM and 2.88 nM, respectively.
Consider “recombinant human tetranectin (TN), residue 22-202 with a C-terminal histidine tag (from UniProt P05452 22-202)”, for which the Kd (as a rule, the concentration at which binding is half-saturated) was 1.21 nM in assay [7] and 1.21 to 2.88 nM in assay [8].
